T1: ComL (Neisseria meningitidis MC58, UniProt Q9K0B1 17-267)
T1 sequence: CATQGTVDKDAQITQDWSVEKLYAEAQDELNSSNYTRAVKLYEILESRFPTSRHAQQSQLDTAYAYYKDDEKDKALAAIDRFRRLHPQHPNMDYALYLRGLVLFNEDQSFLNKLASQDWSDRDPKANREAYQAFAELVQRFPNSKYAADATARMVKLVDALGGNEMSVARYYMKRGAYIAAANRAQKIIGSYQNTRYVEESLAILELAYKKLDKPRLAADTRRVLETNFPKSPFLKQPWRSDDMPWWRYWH

B1: HH10 ssDNA without DUS (ssDNA)
DNA: AACAACAACAAAAGGCCTGTCATCCAACTTCCGGACAGTAAACAACAACAAC
B2: HH10/HH11 dsDNA without DUS (dsDNA)
DNA 1: AACAACAACAAAAGGCCTGTCATCCAACTTCCGGACAGTAAACAACAACAAC
DNA 2: GTTGTTGTTGTTTACTGTCCGGAAGTTGGATGACAGGCCTTTTGTTGTTGTT

Target: T1, ComL
Experiment: EMSA; 5 mM Mg2+; EMSA: 4.5 fmol DNA in 10 µl; 10% glycerol, 5 mM MgCl2, 0.02 mg/ml BSA, 1 mM DTT, with half volume of protein in 50 mM NaH2PO4, 300 mM NaCl, pH 8.0, 0.1% DDM (final about 25 mM phosphate, 150 mM NaCl, 0.05% DDM); 37 °C, 15 min; 6% PAGE Tris/glycine/EDTA
Settings: protein: recombinant, tags: C-terminal 6xHis, label: 5'-32P

Row | Binder | apparent K (half saturation) [nM] | apparent K (half saturation) (blunt) [nM]
1 | B1 | 926 | 
2 | B2 |  | 467
